Consider one substance from publication PMC9913602.

For test [1], the target named is HCV NS3/NS4A protease complex (NS3 protease domain residues 1-182 preincubated with synthetic NS4A cofactor peptide) (hepatitis C virus). Briefly: single-turnover cleavage kinetics (Western blot of remaining substrate); 0.5 μM IKKε with 5 μM NS3 + 244 μM NS4A peptide, 23 °C, digestion buffer (50 mM HEPES pH 7.8, 0.5 mM EDTA, 25% glycerol, 10 mM DTT, 0.25 M KCl, 0.05 M NaCl, 0.2% CHAPS); Kd estimated by Equation (2) from the constant c of the single-exponential fit, assumed to be unbound kinase.

Test [2] shares this target. Briefly: single-turnover cleavage kinetics (Western blot of remaining substrate); 0.1 μM IKKε with 5 μM NS3 + 244 μM NS4A peptide, 23 °C, digestion buffer (50 mM HEPES pH 7.8, 0.5 mM EDTA, 25% glycerol, 10 mM DTT, 0.25 M KCl, 0.05 M NaCl, 0.2% CHAPS); Kd estimated by Equation (2) from the constant c of the single-exponential fit, assumed to be unbound kinase.

One may read the Kd as the constant that tells how readily two partners part at equilibrium. Take “Recombinant human IKKε (Inhibitor of κB kinase ε) (from UniProt Q14164 1-716) (enzyme)”: the Kd in test [1] is 1.68 µM; in test [2], 4.57 µM.
